Measurements from article PMC9169858 (Proceedings of the National Academy of Sciences of the …, 2022).

Target: SARS-CoV-2 main protease (M^pro), pGEX4T-1 construct, GST removed by thrombin (SARS-CoV-2, Wuhan-Hu-1 (MN908947.3))
Assay: BLI
Conditions: both partners purified

B1: NB2E3 (VHH)
VHH: QVQLQESGGGSVQAGGSLRLSCAVSGFIATSCALGWFRQAPGKEREGIATITTDGTTYYVDSVKGRFTISQDNAKNTVALQMNSLKPEDTAMYYCKLCCSGQYCAWGQGTQVTVSS
Q: Does B1 bind?
A: binds

B2: NB1D10 (VHH)
VHH: QVQLQESGGGSVQAGGSLRLSCAVSGYSYCNYDLGWFRQAPGKEREGIATIDSDGNTYYVDSVKGRFTISQDNAKNTVALQMNSLKPEDTAMYYCKVGSIASSVPEVSCPPSAPFGYWGQGTQVTVSS
Q: Does B2 bind?
A: binds
